Results from paper PMC3032713.

Target: RBSDV P9-1 as used in vitro (data not shown) (Rice black-streaked dwarf virus)
Test: not stated; P9-1 dimers in vitro; data not shown

**Q.** For “RBSDV P9-1 as used in vitro (data not shown) (natural protein)”, which stoichiometry N is on record?
**A.** 2
